# Reference: patent US20130315914A1 (NOVIMMUNE, published 2013)
# Numbering of substitutions follows the chain as printed. In names and notes the source's numbering stands.
# T1: cynomolgus monkey TLR4 expressed on stably transfected CHO-K1 cells (cynomolgus monkey, UniProt Q9TSP2 24-826 (Papio anubis entry))
# T1 construct: Transfected alone; also called CHO cells expressing the cynomolgus monkey TLR4
# T1 chain: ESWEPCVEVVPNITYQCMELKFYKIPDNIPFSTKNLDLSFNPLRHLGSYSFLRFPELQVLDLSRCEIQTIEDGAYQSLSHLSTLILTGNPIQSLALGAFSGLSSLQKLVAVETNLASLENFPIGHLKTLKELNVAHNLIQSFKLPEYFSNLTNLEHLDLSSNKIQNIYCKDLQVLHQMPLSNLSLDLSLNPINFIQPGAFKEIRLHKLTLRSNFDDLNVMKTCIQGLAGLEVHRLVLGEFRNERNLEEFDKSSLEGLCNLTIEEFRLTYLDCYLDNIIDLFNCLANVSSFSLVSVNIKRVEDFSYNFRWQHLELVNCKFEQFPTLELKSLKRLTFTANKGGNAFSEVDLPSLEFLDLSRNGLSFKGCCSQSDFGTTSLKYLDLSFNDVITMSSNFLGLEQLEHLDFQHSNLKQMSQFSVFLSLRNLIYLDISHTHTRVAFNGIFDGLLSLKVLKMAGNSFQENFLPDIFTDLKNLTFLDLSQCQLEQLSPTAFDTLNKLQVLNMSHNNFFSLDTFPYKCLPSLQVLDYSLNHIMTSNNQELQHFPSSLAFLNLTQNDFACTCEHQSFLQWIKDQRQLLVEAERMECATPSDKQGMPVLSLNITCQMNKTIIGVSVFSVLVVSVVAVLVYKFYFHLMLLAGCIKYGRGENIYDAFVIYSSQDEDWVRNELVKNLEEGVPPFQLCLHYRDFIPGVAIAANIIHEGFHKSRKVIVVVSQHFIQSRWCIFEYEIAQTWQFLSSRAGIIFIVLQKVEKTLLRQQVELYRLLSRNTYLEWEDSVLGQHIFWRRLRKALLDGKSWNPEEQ
# T2: cynomolgus monkey TLR4 in cynomolgus monkey whole blood (cynomolgus monkey, UniProt Q9TSP2 24-826 (Papio anubis entry))
# T2 chain: T1 chain
# B1: 1A1 antibody (IgG1) (antibody, V domains shown)
# VH: QVQLQESGPGLVKPSDTLSLTCAVSGYSITGGYSWHWIRQPPGKGLEWMGYIHYSGYTDFNPSLKTRITISRDTSKNQFSLKLSSVTAVDTAVYYCARKDSGRLLPYWGQGTLVTVSS
# VL: EIVLTQSPDFQSVTPKEKVTITCRASQSISDHLHWYQQKPDQSPKLLIKYASHAISGVPSRFSGSGSGTDFTLTINSLEAEDAATYYCQQGHSFPLTFGGGTKVEIK
# notes: also called 1A1 Mab
# B2: 1C7 antibody (IgG1) (antibody, V domains shown)
# VH: B1 VH with R103H, L104N, L105Y
# VL: B1 VL
# notes: also called 1C7 Mab
# B3: 1C10 antibody (IgG1) (antibody, V domains shown)
# VH: B1 VH with R103K, L104N, L105F
# VL: B1 VL
# notes: also called 1C10 Mab
# B4: 1G12 antibody (IgG1) (antibody, V domains shown)
# VH: B1 VH with L104Y, L105W
# VL: B1 VL
# notes: also called 1G12 Mab
# B5: 1D10 antibody (IgG1) (antibody, V domains shown)
# VH: B1 VH with R103H, L104N
# VL: B1 VL
# notes: also called 1D10 Mab
# B6: 1B12 antibody (IgG1) (antibody, V domains shown)
# VH: B1 VH with R103H, L105M
# VL: B1 VL
# notes: also called 1B12 Mab
# B7: 1A6 antibody (IgG1) (antibody, V domains shown)
# VH: B1 VH with R103K, L104W
# VL: B1 VL
# notes: also called 1A6 Mab
# B8: 1C12 antibody (IgG1) (antibody, V domains shown)
# VH: B1 VH with R103Q, L105F
# VL: B1 VL
# notes: also called 1C12 Mab
# B9: 1E11 N103D antibody (IgG1) (antibody, V domains shown)
# VH: B1 VH with R103D, L104Y, L105F
# VL: B1 VL
# notes: 1E11 with the N103D mutation in the heavy chain; also called 1E11 N103D Mab
# B10: 1E11.E4 antibody (IgG1) (antibody, V domains shown)
# VH: B1 VH with R103N, L104Y, L105F
# VL: B1 VL with H92Y, S93D, F94Y
# B11: 1E11.C6 antibody (IgG1) (antibody, V domains shown)
# VH: B1 VH with S28P, T30G, R103N, L104Y, L105F
# VL: B1 VL
# B12: 1E11.C2E5 antibody (IgG1) (antibody, V domains shown)
# VH: B1 VH with S28P, T30R, G31F, R103N, L104Y, L105F
# VL: B1 VL with H92Y, S93E
# B13: 1E11.C2 antibody (IgG1) (antibody, V domains shown)
# VH: B1 VH with S28P, T30R, G31F, R103N, L104Y, L105F
# VL: B1 VL
# B14: 1E11.E1 antibody (IgG1) (antibody, V domains shown)
# VH: B1 VH with R103N, L104Y, L105F
# VL: B1 VL with H92N, S93D, L96V
# B15: 1E11.C1 antibody (IgG1 reformatted) (antibody, V domains shown)
# VH: B1 VH with Y27F, S28P, T30R, G31Y, R103N, L104Y, L105F
# VL: EIVLTQSPDFQSVTPKEKVTITCRASQSISDHLHWYQQKPDQSPKLLIKYASHAISGVPSRFSGSGSGTDFTLTINSLEAEDAATYYCQQGHSFPLTFGGGTKVEIKR
# notes: VH 67 / VL 4 are the variable domains
# B16: 1E11.C2E1 antibody (IgG1) (antibody, V domains shown)
# VH: B1 VH with S28P, T30R, G31F, R103N, L104Y, L105F
# VL: B1 VL with H92N, S93D, L96V
# B17: 1E11.E3 antibody (IgG1) (antibody, V domains shown)
# VH: B1 VH with R103N, L104Y, L105F
# VL: B1 VL with H92Y, S93D
# B18: 1E11.C3 antibody (IgG1) (antibody, V domains shown)
# VH: B1 VH with S28P, T30R, G31H, R103N, L104Y, L105F
# VL: B1 VL
# B19: 1E11.E2 antibody (IgG1) (antibody, V domains shown)
# VH: B1 VH with R103N, L104Y, L105F
# VL: B1 VL with H92Y, S93D, F94E, L96F
# B20: 1E11.C2E4 antibody (IgG1) (antibody, V domains shown)
# VH: B1 VH with S28P, T30R, G31F, R103N, L104Y, L105F
# VL: B1 VL with H92Y, S93D, F94Y
# B21: 1E11.E5 antibody (IgG1) (antibody, V domains shown)
# VH: B1 VH with R103N, L104Y, L105F
# VL: B1 VL with H92Y, S93E
# B22: 1E11.C5 antibody (IgG1) (antibody, V domains shown)
# VH: B1 VH with S28P, T30W, R103N, L104Y, L105F
# VL: B1 VL
# B23: 1E11 antibody (IgG1 reformatted) (antibody, V domains shown)
# VH: B1 VH with R103N, L104Y, L105F
# VL: B15 VL
# notes: also called 1E11 Mab
# Target: T1, cynomolgus monkey TLR4 expressed on …
# Experiment: summary table of species specificity (flow cytometry results)
# Description: 10⁵ CHO cells or CHO cells expressing the cynomolgus monkey TLR4 were incubated in phosphate-buffered saline, 2% bovine serum albumin with different concentrations of purified antibodies selected by FMAT (1A1, 1A6, 1B12, 1C7, 1C10, 1C12, 1D10, 1E11, 1G12) with 15C1 as control. Cells were washed in phosphate-buffered saline, 2% bovine serum albumin and incubated in Alexa Fluor® 647 goat anti human IgG (H+L) (1:200; Invitrogen). Cells were analyzed using a FACS calibur cytometer (BD Biosciences).
# Similar experiments were conducted with CHO cells or CHO cells expressing the human TLR4/MD2 complex. […] 1C12 Mab was also able to bind to human TLR4 but with a lower potency compared to 1E11 and 15C1 Mabs.
row,Binder,binding result
1,B1,binds
2,B2,binds
3,B3,binds
4,B4,binds
5,B5,binds
6,B6,binds
7,B7,binds
8,B8,binds
9,B9,binds

# Target: T3, soluble histidine-tagged form of human TLR4/MD2 complex (human, UniProt Q9Y6Y9 19-160)
# T3 sequence (Q9Y6Y9 19-160, one chain of several): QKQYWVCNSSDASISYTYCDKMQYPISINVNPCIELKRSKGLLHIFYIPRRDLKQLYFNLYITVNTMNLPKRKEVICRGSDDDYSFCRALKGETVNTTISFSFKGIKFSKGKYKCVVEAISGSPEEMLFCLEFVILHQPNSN
# Experiment: competitive ELISA; 15C1 reference EC50 divided by variant EC50
# Description: (§1) The VH and VL cDNA sequences in their appropriate expression vectors were transfected into mammalian cells using the Fugene 6 Transfection Reagent (Roche, Basel, Switzerland). Briefly, Peak cells were cultured in 6-well plates at a concentration of 6×10⁵ cells per well in 2 mL culture media containing fetal bovine serum. The expression vectors, encoding the candidate VH and VL sequences, were co-transfected into the cells using the Fugene 6 Transfection Reagent according to manufacturer's instructions. One day following transfection, the culture media was aspirated, and 3 mL of fresh serum-free media was added to cells and cultured for three days at 37° C. Following three days culture period, the supernatant was harvested for IgG purified on protein G-Sepharose 4B fast flow columns (Sigma, St. Louis, Mo.) according to manufacturer's instructions. Briefly, supernatants from transfected cells were incubated overnight at 4° C. with ImmunoPure (G) IgG binding buffer (Pierce, Rockford Ill.). Samples were then passed over Protein G-Sepharose 4B fast flow columns and the IgG consequently purified using elution buffer. The eluted IgG fraction was then dialyzed against PBS and the IgG content quantified by absorption at 280 nm. Purity and IgG integrity were verified by SDS-PAGE. Relative binding potency of 1E11 variants was assessed by competitive ELISA. Briefly, 15C1 antibody was coated overnight in a 96-well Maxisorp plate and then blocked with PBS-BSA. The 15C1 reference antibody and affinity matured variants of 1E11 were added to the plate at a fixed concentration and a 3.5-fold serial dilution of the samples was performed. Then, soluble histidine-tagged form of human TLR4/MD2 complex was added to the plate at a fixed concentration. After incubation one hour at 37° C., the plate was washed and a solution of Penta-His-HRP antibody was distributed, this step was followed by an additional incubation time of one hour at 37° C. Finally, the plate was washed and TMB was added for colorimetric revelation, the enzymatic reaction is stopped by H₂SO₄ solution. The results were determined according to the absorbance at 450 nm. The relative binding potency was calculated by dividing the reference EC₅₀ with affinity matured variants EC₅₀ (Table 8).
row,Binder,Relative binding potency increase
1,B10,5 fold
2,B11,10 fold
3,B12,36 fold
4,B13,17 fold
5,B14,4 fold
6,B15,12 fold
7,B16,29 fold
8,B17,5 fold
9,B18,5 fold
10,B19,2 fold
11,B20,40 fold
12,B21,4 fold
13,B22,7 fold

# Target: T3, soluble histidine-tagged form of human …
# Experiment: competitive ELISA; coated 15C1 as competitor, soluble His-tagged human TLR4/MD2, Penta-His-HRP
# Description: as §1
row,Binder,EC50
1,B10,0.13 µg/mL
2,B11,0.061 µg/mL
3,B12,0.017 µg/mL
4,B13,0.036 µg/mL
5,B14,0.157 µg/mL
6,B15,0.052 µg/mL
7,B16,0.021 µg/mL
8,B17,0.126 µg/mL
9,B18,0.119 µg/mL
10,B19,0.315 µg/mL
11,B20,0.015 µg/mL
12,B21,0.152 µg/mL
13,B22,0.087 µg/mL

# Target: human TLR4 in human whole blood (human)
# Experiment: cell-based or functional assay
Binder,"IC50, inhibition of IL-6 production in human whole blood assay",fold better than 15C1 at blocking human TLR4 (human whole blood assay)
B13,0.07 µg/mL,3 fold

# Target: T2, cynomolgus monkey TLR4 in cynomolgus …
# Experiment: cell-based or functional assay
row,Binder,"IC50, inhibition of IL-6 production in cynomolgus monkey whole blood assay"
1,B13,~0.5 µg/mL

# Target: T1, cynomolgus monkey TLR4 expressed on …
# Experiment: summary grade (species binding potential); assay not given
row,Binder,binding result
1,B23,binds
2,B10,binds
3,B11,binds
4,B12,binds
5,B14,binds
6,B16,binds
7,B17,binds
8,B18,binds
9,B19,binds
10,B20,binds
11,B21,binds
12,B22,binds
